The source of these data is patent EP4687981A2 (dated 2026).

In the test the target is T1, human CDH11 on primary human fibroblast-like synoviocytes (FLS) (human, UniProt P55287 54-796).
T1 construct: whole, on cells; also called human FLS; human synoviocytes
T1 sequence (looked up): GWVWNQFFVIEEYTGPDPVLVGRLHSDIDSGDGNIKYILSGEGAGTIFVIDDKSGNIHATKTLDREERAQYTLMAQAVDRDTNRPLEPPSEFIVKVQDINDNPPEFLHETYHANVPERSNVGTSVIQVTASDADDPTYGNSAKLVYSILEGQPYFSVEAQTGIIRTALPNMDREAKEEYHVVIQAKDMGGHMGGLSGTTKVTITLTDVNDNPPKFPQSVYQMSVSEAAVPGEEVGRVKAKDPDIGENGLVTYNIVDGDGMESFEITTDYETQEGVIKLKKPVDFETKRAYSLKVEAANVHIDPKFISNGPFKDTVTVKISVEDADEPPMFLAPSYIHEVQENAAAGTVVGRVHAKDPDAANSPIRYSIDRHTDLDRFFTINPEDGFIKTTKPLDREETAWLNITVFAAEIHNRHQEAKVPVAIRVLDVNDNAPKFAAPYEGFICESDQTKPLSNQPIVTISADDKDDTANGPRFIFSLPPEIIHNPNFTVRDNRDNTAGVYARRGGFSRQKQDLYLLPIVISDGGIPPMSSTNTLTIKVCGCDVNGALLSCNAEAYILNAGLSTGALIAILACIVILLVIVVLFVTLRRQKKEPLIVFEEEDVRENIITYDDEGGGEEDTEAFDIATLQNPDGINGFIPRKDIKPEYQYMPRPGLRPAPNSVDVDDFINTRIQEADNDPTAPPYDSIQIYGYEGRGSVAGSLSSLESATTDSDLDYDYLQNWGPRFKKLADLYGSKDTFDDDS
The test is described as follows: flow cytometry, hybridoma supernatant on primary human FLS. For orientation: A flow cytometer gives signals particle by particle.

B1: anti-CDH11 antibody 10E1 (antibody, V domains shown)
VH: QVQLQQSGPGLVKPSQTLSLTCAISGDSVSSNSAAWNWIRQSPSRGLEWLGRTYYRSKWYNDYAVSVKSRITINPDTSKNQFSLQLNSMTPEDTAVYYCARATMVRGAFDYWGQGTLVTVSS
VL: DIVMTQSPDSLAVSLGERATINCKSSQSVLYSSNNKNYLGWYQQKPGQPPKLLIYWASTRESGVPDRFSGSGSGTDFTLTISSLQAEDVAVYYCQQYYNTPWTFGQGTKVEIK
notes: Monoclonal from a VelocImmune mouse hybridoma; It was detected with anti-mouse IgG Fc, so the constant regions are mouse; the isotype cannot be read in this copy; also called clone 10E1
As to B1, the binding result is recorded as “binds”.
